Source: patent US20240199724A1 (THELPER, published 2024)
Residue numbers refer to the chain shown, from its start. Values joined by “and” are separate entries in the source; they are usually repeats but may differ in a detail not shown here. Equal values may be shown once.

T1: US28 of HCMV strain TB40/E with C-terminal 6His tag, on CHO cells (human cytomegalovirus (HCMV) strain …, UniProt P69332 1-354)
T1 construct: also called TB40/E form of US28
T1 chain: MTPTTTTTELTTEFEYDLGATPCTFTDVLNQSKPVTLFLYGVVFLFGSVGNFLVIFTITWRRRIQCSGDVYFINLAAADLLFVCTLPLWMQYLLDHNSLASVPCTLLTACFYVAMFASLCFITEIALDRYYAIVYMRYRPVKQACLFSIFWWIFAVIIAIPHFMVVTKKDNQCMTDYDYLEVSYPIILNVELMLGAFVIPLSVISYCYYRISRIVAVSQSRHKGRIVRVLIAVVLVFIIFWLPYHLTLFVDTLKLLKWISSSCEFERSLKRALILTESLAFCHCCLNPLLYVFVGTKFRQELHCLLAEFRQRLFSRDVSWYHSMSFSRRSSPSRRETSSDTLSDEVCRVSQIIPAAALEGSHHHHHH

T2: mutated US28 (artificially created mutated strain) with C-terminal 6His tag, on CHO cells (human cytomegalovirus (HCMV), …, UniProt P69332 1-354)
T2 construct: also called CHO-mutated strain; mutated form of US28
T2 chain: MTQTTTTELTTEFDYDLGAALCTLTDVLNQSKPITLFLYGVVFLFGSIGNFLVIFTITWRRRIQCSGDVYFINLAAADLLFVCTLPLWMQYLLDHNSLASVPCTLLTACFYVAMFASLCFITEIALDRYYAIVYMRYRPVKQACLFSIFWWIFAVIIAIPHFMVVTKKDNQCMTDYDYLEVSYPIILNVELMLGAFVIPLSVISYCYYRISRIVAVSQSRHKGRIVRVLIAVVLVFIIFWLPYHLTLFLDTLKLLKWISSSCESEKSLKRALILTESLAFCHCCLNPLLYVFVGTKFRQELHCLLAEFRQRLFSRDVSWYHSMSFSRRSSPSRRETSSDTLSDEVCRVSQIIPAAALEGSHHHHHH

T3: US28 of HCMV strain DB with C-terminal 6His tag, on CHO-US28-A1 cells (human cytomegalovirus (HCMV) strain DB, UniProt P69332 1-354)
T3 chain: T1 chain with T8A, E15D, L18E, G19A, T24V, V49I, D170N

T4: US28 of HCMV strain Ad169, on infected MRC-5 cells (human cytomegalovirus (HCMV) strain …, UniProt P69332 1-354)
T4 sequence: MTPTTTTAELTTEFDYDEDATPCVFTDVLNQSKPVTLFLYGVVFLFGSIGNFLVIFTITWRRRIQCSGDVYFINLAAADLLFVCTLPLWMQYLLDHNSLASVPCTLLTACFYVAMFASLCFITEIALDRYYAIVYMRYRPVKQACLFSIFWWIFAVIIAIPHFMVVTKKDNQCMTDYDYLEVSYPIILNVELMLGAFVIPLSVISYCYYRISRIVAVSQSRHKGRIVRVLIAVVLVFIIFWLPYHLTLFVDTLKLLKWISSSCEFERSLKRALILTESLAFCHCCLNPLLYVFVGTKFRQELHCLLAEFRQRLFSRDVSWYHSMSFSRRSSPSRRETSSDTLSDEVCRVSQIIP

B1: bivalent VUN100 (VHH)
chain: EVQLVESGGGLVQPGGSLRLACAVSGPGLIFKFTGVAWYRRQVPGAKRGLVALITGDGATRYGDSVKGRFTVSRDIAAKRVYLEMNDLRSEDTAVYYCKTGEYWGQGTQVTVSSGGGGSGGGGSGGGGSGGGGSGGGGSGGGGSEVQLVESGGGLVQPGGSLRLACAVSGPGLIFKFTGVAWYRRQVPGAKRGLVALITGDGATRYGDSVKGRFTVSRDIAAKRVYLEMNDLRSEDTAVYYCKTGEYWGQGTQVTVSS
notes: also called VUN100b; BvVUN100
B2: US28-13-5G6-1D3 antibody (antibody, V domains shown)
VH: EVKLVESGGGLVQPGGSLRLACATSGFTFTDYYMSWVRQPPGKALEWLGFIRSKANGYTTEYSASVKGRFTISRDNSQSILYLQMNTLRSEDSATYYCARDERRTAWLAYWGQGTLVTVSA
VL: DVLMTQTPLSLPVSLGDQASISCRSSQSIVHSNGNTYLDWYLQKPGQSPKLLIYKVSNRFSGVPDRFSGSGSGTDFTLKISRVEAEDLGVYYCFQGSHVPTWTFGGGTKLEIKR
notes: also called US28-13-5G6-1D3 Ab; US28-13-5G6-1D3 rAb
B3: US28-13-5G6-1D3 antibody (antibody)
heavy: EVKLVESGGGLVQPGGSLRLACATSGFTFTDYYMSWVRQPPGKALEWLGFIRSKANGYTTEYSASVKGRFTISRDNSQSILYLQMNTLRSEDSATYYCARDERRTAWLAYWGQGTLVTVSAAKTTPPSVYPLAPGSAAQTNSMVTLGCLVKGYFPEPVTVTWNSGSLSSGVHTFPAVLQSDLYTLSSSVTVPSSTWPSETVTCNVAHPASSTKVDKKIVPRDCGCKPCICTVPEVSSVFIFPPKPKDVLTITLTPKVTCVVVDISKDDPEVQFSWFVDDVEVHTAQTQPREEQFNSTFRSVSELPIMHQDWLNGKEFKCRVNSAAFPAPIEKTISKTKGRPKAPQVYTIPPPKEQMAKDKVSLTCMITDFFPEDITVEWQWNGQPAENYKNTQPIMDTDGSYFIYSKLNVQKSNWEAGNTFTCSVLHEGLHNHHTEKSLSHSPGK
light: DVLMTQTPLSLPVSLGDQASISCRSSQSIVHSNGNTYLDWYLQKPGQSPKLLIYKVSNRFSGVPDRFSGSGSGTDFTLKISRVEAEDLGVYYCFQGSHVPTWTFGGGTKLEIKRADAAPTVSIFPPSSEQLTSGGASVVCFLNNFYPKDINVKWKIDGSERQNGVLNSWTDQDSKDSTYSMSSTLTLTKDEYERHNSYTCEATHKTSTSPIVKSFNRNEC
B4: US28-14-4E4-1E8 antibody (antibody, mouse IgG1, kappa, V domains shown)
VH: EVKLVESGGDLVKPGGSLKLSCAASGFTFSSYAMSWVRQTPEKRLEWVASISSGGRTYYPDSVKGRFTISRDNARNILYLQMSSLRSEDTAIYYCARGGTRHSYGNGFDYWGQGTTLTVSS
VL: QIVLSQSPTIMSASPGEKVTMTCSASSSVSYMHWYQQKSGTSPKRWIYDSSKLASGVPARFSGSGSGTSYSLTISSMEAEDAATYYCQQWTSNPPITFGAGTKLELKR
B5: US28-13-1H3-1A10 antibody (antibody, mouse IgG1, kappa, V domains shown)
VH: EVKLVESGGVLVKPGGSLKFSCAASGFTLSSHALSWVRQTPEKRLEWVASISSRGRTYYPDSVKGRFTVSRDNARNILYLQVSSLRSEDTAMYYCTRGGTHYSYGNGFDFWGQGTTLTVSS
VL: B4 VL with S5T, T9A, A25V, S50T, S76T, T91S, S92N
notes: also called 14-1H3-1A10; 14-IH3-IA10
B6: US28-13-1C10-1C10 antibody (antibody, mouse IgG1, kappa, V domains shown)
VH: B5 VH with L29F
VL: B4 VL with S5T, T9A, A25V, S50T, S76T, T91S, S92N
B7: monovalent VUN100 (VHH)
VHH: EVQLVESGGGLVQPGGSLRLACAVSGPGLIFKFTGVAWYRRQVPGAKRGLVALITGDGATRYGDSVKGRFTVSRDIAAKRVYLEMNDLRSEDTAVYYCKTGEYWGQGTQVTVSS
notes: also called Mv VUN100; VUN100 Ab

Columns and labels:
[1] = target: US28 of HCMV strain DB with C-terminal 6His tag, on CHO-US28-A1 cells (human cytomegalovirus (HCMV) strain DB) (UniProt P69332); assay: flow cytometry, secondary antibody alone on CHO-US28-A1 cells
[2] = target: T1, US28 of HCMV strain TB40/E with …; assay: flow cytometry, CHO cells expressing US28 of strain TB40/E
[3] = target: T2, mutated US28 (artificially created …); assay: flow cytometry, CHO cells expressing the mutated US28 (FIG. 21B)
[4] = target: T2, mutated US28 (artificially created …); assay: flow cytometry, CHO cells expressing the mutated US28
[5] = target: T1, US28 of HCMV strain TB40/E with …; assay: flow cytometry, CHO cells expressing DB or TB40/E US28 (FIG. 21C)
[6] = target: T3, US28 of HCMV strain DB with C-terminal …; assay: flow cytometry, CHO cells expressing US28 of strain DB
[7] = target: T1, US28 of HCMV strain TB40/E with …; assay: flow cytometry, CHO cells expressing DB or TB40/E US28 (FIG. 21D)
[8] = target: T4, US28 of HCMV strain Ad169, on infected …
[9] = target: T3, US28 of HCMV strain DB with C-terminal …; assay: flow cytometry, CHO-US28 (DB) cells against control CHO cells, background subtracted
[10] = target: T3, US28 of HCMV strain DB with C-terminal …; assay: flow cytometry
[11] = target: T3, US28 of HCMV strain DB with C-terminal …; assay: flow cytometry, 1:50 (w/v)
[12] = target: Bio-Peptide-2 (human cytomegalovirus (HCMV), 4D variant); assay: ELISA (FIG. 5)

| Molecule | percent of cells bound [2] [%] | percent of cells bound [4] [%] | % change in absolute level of binding between the DB and TB40/E forms of US28 [5] [%] | percent of cells bound [6] [%] | percentage retention of binding activity between the DB and TB40/E forms of US28 [7] [%] | Binding specificity comparative to the specificity displayed by VUN100 [9] [ratio] | other results |
| --- | --- | --- | --- | --- | --- | --- | --- |
| Goat anti-mouse IgG-Alexa 488 (antibody) | – | – | – | – | – | – | percent of cells bound [1]: 1.63% |
| B1 | 5.2 | 2.58 | > 40 | 9.24 | ≤ 60 | – | fold binding against control CHO cells [3]: 2.43 fold |
| B2 | 18.2 | 12.9 | < 10 | 16.6 | ~100 | 1.65 | fold binding against uninfected cells [8]: ~16 fold; fold binding against control CHO cells [3]: ~15 fold; fold binding against normal CHO cells [10]: > 21 fold; fold binding against US28 negative CHO cells [11]: 15 fold |
| B3 | – | – | – | – | – | – | fold binding against BSA control [12]: 27 fold and 28 fold |
| B4 | – | – | – | – | – | 4.6 | – |
| B5 | – | – | – | – | – | 2.29 | – |
| B6 | – | – | – | – | – | 1.74 | – |
| B7 | 4.33 | 1.41 | > 35 | 6.91 | ≤ 60 | – | specificity (fold binding against control CHO cells) [3]: < 1 fold; binding result [4]: no binding (tested: 50 µg/ml) |
